Like-named read-outs stand apart in the source and are kept apart here.
Experiments:
[1] = target: HA-InR^intra (intracellular domain of insulin receptor including the kinase domain) (Drosophila) (UniProt P09208); test: proximity ligation
[2] = target: HA-InR^intra (intracellular domain of insulin receptor including the kinase domain) (Drosophila) (UniProt P09208); test: proximity ligation; remark: listed apart in the source

Sequence of UniProt P09208 (P09208 1086-2144): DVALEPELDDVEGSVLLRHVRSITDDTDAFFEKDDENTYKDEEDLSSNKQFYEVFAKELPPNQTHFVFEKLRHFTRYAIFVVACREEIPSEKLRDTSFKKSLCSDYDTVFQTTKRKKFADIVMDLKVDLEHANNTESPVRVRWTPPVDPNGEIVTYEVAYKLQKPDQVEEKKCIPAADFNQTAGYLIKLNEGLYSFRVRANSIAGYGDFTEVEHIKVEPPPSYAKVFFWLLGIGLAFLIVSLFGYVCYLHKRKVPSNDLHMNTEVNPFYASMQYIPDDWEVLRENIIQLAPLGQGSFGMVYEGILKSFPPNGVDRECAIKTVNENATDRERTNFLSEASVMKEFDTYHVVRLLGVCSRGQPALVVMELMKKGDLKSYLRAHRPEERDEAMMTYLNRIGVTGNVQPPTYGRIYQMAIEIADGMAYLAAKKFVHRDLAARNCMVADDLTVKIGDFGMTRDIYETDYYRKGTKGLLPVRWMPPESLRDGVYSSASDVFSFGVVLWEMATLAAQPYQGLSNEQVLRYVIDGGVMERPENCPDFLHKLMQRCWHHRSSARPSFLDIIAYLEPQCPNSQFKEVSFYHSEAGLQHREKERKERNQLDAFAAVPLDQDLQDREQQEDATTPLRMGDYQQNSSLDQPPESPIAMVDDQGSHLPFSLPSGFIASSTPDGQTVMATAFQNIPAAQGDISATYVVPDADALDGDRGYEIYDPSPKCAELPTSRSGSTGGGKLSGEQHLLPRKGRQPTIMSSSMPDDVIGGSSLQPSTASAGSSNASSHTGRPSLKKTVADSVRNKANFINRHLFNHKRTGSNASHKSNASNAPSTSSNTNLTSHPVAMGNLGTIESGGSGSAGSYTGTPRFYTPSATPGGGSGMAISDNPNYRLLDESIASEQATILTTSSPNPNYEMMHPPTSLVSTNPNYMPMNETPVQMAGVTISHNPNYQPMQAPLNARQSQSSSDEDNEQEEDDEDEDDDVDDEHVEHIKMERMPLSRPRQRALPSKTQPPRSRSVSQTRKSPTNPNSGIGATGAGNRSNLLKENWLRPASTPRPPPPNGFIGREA

Row | Molecule | PLA foci per cell (average) (PLA foci per cell) [1] | percent of cells with PLA signal [1] [%] | percent of cells with moderate PLA signals (11-30 foci) [1] [%] | percent of cells with strong PLA signals (>30 foci) [1] [%] | percent of cells with weak PLA signals (≤10 foci) [1] [%] | percent of cells with PLA signal [2] [%] | percent of cells with moderate PLA signals [2] [%] | percent of cells with strong PLA signals [2] [%] | percent of cells with weak PLA signals [2] [%]
1 | Myc-Hsp83 (heat shock protein 83) (from UniProt P02828 1-717) (natural protein) | 12.8 | 90.9 | 41.8 | 12.7 | 36.4 | – | – | – | –
2 | Myc-Cdc37 (cell division cycle 37) (natural protein) MVDYSKWKNIEISDDEDDTHPNIDTPSLFRWRHQARVERMAEMDHEKDELKKKRQSYQARLMDVKERISKKDGDEEALKKELEKIEAEGKELDRIESEMIKKEKKTPWNVDTISKPGFEKTVINKKAGRKPDENLSEEEREQRMKQFVKENEKLCQQYGMLRKYDDSKRFLQEHLHLVGEETANYLVIWSINLEMEEKHELMAHVAHQCICMQYILELAKQLDVDPRACVSSFFSKIQHCHPEYRAQFDSEIEGFKGRIQKRAQEKIQEAIAQAEEEERKERLGPGGLDPADVFESLPDELKACFESRDVELLQKTIAAMPVDVAKLHMKRCVDSGLWVPNAADLEGDKKEEDDSDDVAGGEEKTDDAKSESAAKEEPIYTGVSTEDVD | – | – | – | – | – | 86.8 | 31.4 | 4.1 | 51.3

From publication PMC6178561
